This is an account of results in US20100056457.

Data set [1] has as its system pE2S six-finger protein (synthetic (Zif268/Sp1C framework)). Description: EMSA. In general terms: A gel shift assay detects complexes by their altered migration in electrophoresis.
The test system of data set [2] is gg1 six-finger protein (synthetic). The settings on record: CITED ref 40 (Graslund 2005); cited from earlier work.
Data set [3] relates to pE2S six-finger protein (synthetic (Zif268/Sp1C framework)). Description: footprint. The settings on record: DNase I footprint, 10 uM Zn, 4 C, mean of three; protected exactly the 18 bp site.

As to “CGGGGGGCTCCCCTGGTT (double strand) [E2S target site]”, in data set [1], the Kd was determined as 3.25 nM.

As for “GTCAAGGCAAGGCTGGCC (double strand) [gg1 target site]”, the Kd in data set [2] was 0.7 nM.

“ERBB-2 promoter fragment, 267 bp (-209 to +3)” registered a Kd in data set [3] of 14 nM.

A word on the Kd: it is the constant that tells how readily two partners part at equilibrium.
